Article PMC3814365 (Nucleic Acids Research, 2013)

Biological target: Untagged Rps28a (S. cerevisiae, UniProt Q3E7X9 1-67)
Assay: SEC-MALS

Untagged Rps28a, sequence (Q3E7X9 whole entry): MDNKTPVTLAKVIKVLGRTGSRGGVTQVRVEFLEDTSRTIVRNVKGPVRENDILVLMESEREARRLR

stoichiometry N: 1
Binder: DDIDDPKYLPITQSLNITHLIHSATNSPSIN (peptide, UniProt P39998 201-231, looked up) [Edc3(201–231) lacking the His-GST tag]
